Results published in patent US6306273A, “Methods and compositions for conducting processes in microfluidic devices” (Aclara BioSciences, Inc., priority 1999, dated 2001).
Ends that are not written are not given here. * marks the point of attachment. FITC = O=C1OC2(c3ccc(O)cc3Oc3cc(O)ccc32)c2ccc(NC(=S)*)cc21

Assay: Separation of FITC labeled peptides in dynamically coated chip; charge from migration time relative to EOF
Type: physicochemical
Settings: 0.05% ammonium guar; determined by migration time relative to EOF
Description: The coating procedure and the separation conditions were the same as described previously. The surface modifying polymer was 0.05% ammonium guar. Three FITC labeled peptides (obtained from AnaSpec, San Jose, Calif.), which differed by one charge from each other (FITC-KKAA, FITC-KKKA and FITC-KKKK), were separated and detected 0.5 cm from the injection point on the anodal side. […] FITC-KKKA and FITC-KKKK migrated electrophoretically against the EOF. The net charge of FITC-KKKK was greater than +1.

Q: With “FITC-KKAA: FITC labeled peptide, SEQ ID NO:1, from AnaSpec ({FITC}-KKAA)” as the substance, how does the net charge read?
A: negatively charged

Q: For “FITC-KKKA: FITC labeled peptide, SEQ ID NO:2, from AnaSpec ({FITC}-KKKA)”, which net charge is on record?
A: positive charged
